Experimental data: PMC10967792

How the values were obtained:
[1] = biological target: hCCR7-mNeongreen (CCR7 C-terminally tagged with mNeonGreen) (human) (UniProt P32248)
[2] = biological target: human CC chemokine receptor 7 (hCCR7), stably expressed (human) (UniProt P32248)

Row | pEC50 of β-arrestin1 (Arrβ1) recruitment to CCR7 (NanoBRET), CHO-K1 cells [1] | pEC50 of β-arrestin1 (Arrβ1) recruitment to CCR7 (NanoBRET), HEK293A cells [1] | pEC50 of β-arrestin1 (Arrβ1) recruitment to CCR7 (NanoBRET), U87 cells [1] | pEC50 of β-arrestin2 (Arrβ2) recruitment to CCR7 (NanoBRET), CHO-K1 cells [1] | pEC50 of β-arrestin2 (Arrβ2) recruitment to CCR7 (NanoBRET), HEK293A cells [1] | pEC50 of β-arrestin2 (Arrβ2) recruitment to CCR7 (NanoBRET), U87 cells [1] | pEC50 of Gα12 activation (NanoBRET, G protein dissociation), HEK293A cells expressing CCR7 [2] | pEC50 of Gα12 activation (NanoBRET, G protein dissociation), U87 cells expressing CCR7 [2] | pEC50 of Gα13 activation (NanoBRET, G protein dissociation), CHO-K1 cells expressing CCR7 [2] | pEC50 of Gα13 activation (NanoBRET, G protein dissociation), U87 cells expressing CCR7 [2] | pEC50 of Gα15 activation (NanoBRET, G protein dissociation), CHO-K1 cells expressing CCR7 [2] | pEC50 of Gα15 activation (NanoBRET, G protein dissociation), HEK293A cells expressing CCR7 [2] | pEC50 of Gαi1 activation (NanoBRET, G protein dissociation), CHO-K1 cells expressing CCR7 [2] | pEC50 of Gαi1 activation (NanoBRET, G protein dissociation), HEK293A cells expressing CCR7 [2] | pEC50 of Gαi1 activation (NanoBRET, G protein dissociation), U87 cells expressing CCR7 [2] | pEC50 of Gαi2 activation (NanoBRET, G protein dissociation), CHO-K1 cells expressing CCR7 [2] | pEC50 of Gαi2 activation (NanoBRET, G protein dissociation), HEK293A cells expressing CCR7 [2] | pEC50 of Gαi2 activation (NanoBRET, G protein dissociation), U87 cells expressing CCR7 [2] | pEC50 of Gαi3 activation (NanoBRET, G protein dissociation), CHO-K1 cells expressing CCR7 [2] | pEC50 of Gαi3 activation (NanoBRET, G protein dissociation), HEK293A cells expressing CCR7 [2] | Sequence | other results
1 | 7.52 -log10(M) | 7.15 -log10(M) | 6.9 -log10(M) | 7.69 -log10(M) | 7.02 -log10(M) | 7.01 -log10(M) | 6.79 -log10(M) | 7.5 -log10(M) | 8.53 -log10(M) | 8.7 -log10(M) | 7.56 -log10(M) | 6.74 -log10(M) | 8.37 -log10(M) | 8.47 -log10(M) | 8.02 -log10(M) | 8.91 -log10(M) | 8.76 -log10(M) | 8.27 -log10(M) | 8.84 -log10(M) | 9.33 -log10(M) | CC chemokine ligand 21 (CCL21) (from UniProt O00585 24-134) | pEC50 of Gα12 activation (NanoBRET, G protein dissociation), CHO-K1 cells expressing CCR7 [2]: 7.94 -log10(M); pEC50 of Gαi3 activation (NanoBRET, G protein dissociation), U87 cells expressing CCR7 [2]: 8.6 -log10(M); pEC50 of GαoA activation (NanoBRET, G protein dissociation), CHO-K1 cells expressing CCR7 [2]: 9.27 -log10(M); pEC50 of GαoA activation (NanoBRET, G protein dissociation), HEK293A cells expressing CCR7 [2]: 7.97 -log10(M); pEC50 of GαoA activation (NanoBRET, G protein dissociation), U87 cells expressing CCR7 [2]: 8.33 -log10(M); pEC50 of GαoB activation (NanoBRET, G protein dissociation), CHO-K1 cells expressing CCR7 [2]: 8.97 -log10(M); pEC50 of GαoB activation (NanoBRET, G protein dissociation), HEK293A cells expressing CCR7 [2]: 8.34 -log10(M); pEC50 of GαoB activation (NanoBRET, G protein dissociation), U87 cells expressing CCR7 [2]: 8.45 -log10(M); pEC50 of Gαq activation (NanoBRET, G protein dissociation), CHO-K1 cells expressing CCR7 [2]: 8.45 -log10(M); pEC50 of Gαq activation (NanoBRET, G protein dissociation), U87 cells expressing CCR7 [2]: 8.1 -log10(M); pEC50 of GαsL activation (NanoBRET, G protein dissociation), HEK293A cells expressing CCR7 [2]: 6.79 -log10(M); pEC50 of GαsL activation (NanoBRET, G protein dissociation), U87 cells expressing CCR7 [2]: 8.99 -log10(M); pEC50 of GαsS activation (NanoBRET, G protein dissociation), CHO-K1 cells expressing CCR7 [2]: 8.1 -log10(M); pEC50 of GαsS activation (NanoBRET, G protein dissociation), U87 cells expressing CCR7 [2]: 8.39 -log10(M)
2 | 7.92 -log10(M) | 7.46 -log10(M) | 7.86 -log10(M) | 8.11 -log10(M) | 7.57 -log10(M) | 7.86 -log10(M) | 7.44 -log10(M) | 7.81 -log10(M) | 8.87 -log10(M) | 8.77 -log10(M) | 8.91 -log10(M) | 7.8 -log10(M) | 8.54 -log10(M) | 8.63 -log10(M) | 8.28 -log10(M) | 8.69 -log10(M) | 9.03 -log10(M) | 8.56 -log10(M) | 8.84 -log10(M) | 9.61 -log10(M) | CC chemokine ligand 19 (CCL19) (from UniProt Q99731 22-98) | pEC50 of Gαi3 activation (NanoBRET, G protein dissociation), U87 cells expressing CCR7 [2]: 8.87 -log10(M); pEC50 of GαoA activation (NanoBRET, G protein dissociation), CHO-K1 cells expressing CCR7 [2]: 9.37 -log10(M); pEC50 of GαoA activation (NanoBRET, G protein dissociation), HEK293A cells expressing CCR7 [2]: 8.3 -log10(M); pEC50 of GαoA activation (NanoBRET, G protein dissociation), U87 cells expressing CCR7 [2]: 8.59 -log10(M); pEC50 of GαoB activation (NanoBRET, G protein dissociation), CHO-K1 cells expressing CCR7 [2]: 8.96 -log10(M); pEC50 of GαoB activation (NanoBRET, G protein dissociation), HEK293A cells expressing CCR7 [2]: 8.85 -log10(M); pEC50 of GαoB activation (NanoBRET, G protein dissociation), U87 cells expressing CCR7 [2]: 8.8 -log10(M); pEC50 of Gαq activation (NanoBRET, G protein dissociation), CHO-K1 cells expressing CCR7 [2]: 8.77 -log10(M); pEC50 of Gαq activation (NanoBRET, G protein dissociation), U87 cells expressing CCR7 [2]: 8.41 -log10(M); pEC50 of GαsL activation (NanoBRET, G protein dissociation), CHO-K1 cells expressing CCR7 [2]: 8.97 -log10(M); pEC50 of GαsL activation (NanoBRET, G protein dissociation), HEK293A cells expressing CCR7 [2]: 7.49 -log10(M); pEC50 of GαsL activation (NanoBRET, G protein dissociation), U87 cells expressing CCR7 [2]: 8.95 -log10(M); pEC50 of GαsS activation (NanoBRET, G protein dissociation), CHO-K1 cells expressing CCR7 [2]: 8.58 -log10(M); pEC50 of GαsS activation (NanoBRET, G protein dissociation), U87 cells expressing CCR7 [2]: 8.65 -log10(M)
